Experimental findings from patent US20170182124A1, “FGF21 Derivatives and Uses Thereof” (Novo Nordisk A/S, priority 2014, published 2017) are described below.

The target of one data set is 3T3-L1 adipocytes (Mus musculus, UniProt P16092+Q99N32). Briefly: Glucose uptake in 3T3-L1 adipocytes. As to conditions: stimulated 20 hours, 3H-deoxy-glucose. In kind it is cell-based. Here is the method: The C-terminal modified analogues were tested for their ability to increase glucose uptake in 3T3-L1 mouse adipocytes. The following assay was used for determining the biological activity, or potency, of FGF21 analogues and derivatives of the invention.
Chain of 3T3-L1 adipocytes (Q99N32 whole entry): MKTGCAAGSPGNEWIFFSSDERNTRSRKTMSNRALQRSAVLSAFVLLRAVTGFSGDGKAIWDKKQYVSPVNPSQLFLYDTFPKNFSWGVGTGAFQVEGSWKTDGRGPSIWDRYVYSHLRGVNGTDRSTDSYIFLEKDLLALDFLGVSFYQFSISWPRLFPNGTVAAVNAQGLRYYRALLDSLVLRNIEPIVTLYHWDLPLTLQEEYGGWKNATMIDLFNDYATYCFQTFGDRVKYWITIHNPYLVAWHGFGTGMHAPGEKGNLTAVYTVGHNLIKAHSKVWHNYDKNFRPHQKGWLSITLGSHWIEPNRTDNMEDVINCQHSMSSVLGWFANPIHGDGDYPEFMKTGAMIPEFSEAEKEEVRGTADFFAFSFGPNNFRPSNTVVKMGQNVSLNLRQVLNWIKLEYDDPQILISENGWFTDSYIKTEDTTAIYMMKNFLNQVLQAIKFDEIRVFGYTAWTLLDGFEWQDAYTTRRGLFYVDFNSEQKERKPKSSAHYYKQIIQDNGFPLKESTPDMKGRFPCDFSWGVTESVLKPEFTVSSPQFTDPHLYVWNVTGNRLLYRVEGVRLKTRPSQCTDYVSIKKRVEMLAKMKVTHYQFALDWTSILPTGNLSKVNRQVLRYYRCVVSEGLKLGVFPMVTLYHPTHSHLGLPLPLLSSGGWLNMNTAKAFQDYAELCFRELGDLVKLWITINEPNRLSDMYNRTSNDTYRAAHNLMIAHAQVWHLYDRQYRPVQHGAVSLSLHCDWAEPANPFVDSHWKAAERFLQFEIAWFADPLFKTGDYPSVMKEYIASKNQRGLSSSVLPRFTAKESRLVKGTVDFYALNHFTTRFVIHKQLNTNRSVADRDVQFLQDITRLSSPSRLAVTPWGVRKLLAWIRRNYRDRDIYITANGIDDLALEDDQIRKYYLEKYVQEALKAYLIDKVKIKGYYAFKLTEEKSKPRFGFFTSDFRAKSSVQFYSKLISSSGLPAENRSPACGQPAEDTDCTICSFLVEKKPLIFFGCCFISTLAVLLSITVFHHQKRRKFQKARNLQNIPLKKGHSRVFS
Chain of 3T3-L1 adipocytes (P16092 22-822): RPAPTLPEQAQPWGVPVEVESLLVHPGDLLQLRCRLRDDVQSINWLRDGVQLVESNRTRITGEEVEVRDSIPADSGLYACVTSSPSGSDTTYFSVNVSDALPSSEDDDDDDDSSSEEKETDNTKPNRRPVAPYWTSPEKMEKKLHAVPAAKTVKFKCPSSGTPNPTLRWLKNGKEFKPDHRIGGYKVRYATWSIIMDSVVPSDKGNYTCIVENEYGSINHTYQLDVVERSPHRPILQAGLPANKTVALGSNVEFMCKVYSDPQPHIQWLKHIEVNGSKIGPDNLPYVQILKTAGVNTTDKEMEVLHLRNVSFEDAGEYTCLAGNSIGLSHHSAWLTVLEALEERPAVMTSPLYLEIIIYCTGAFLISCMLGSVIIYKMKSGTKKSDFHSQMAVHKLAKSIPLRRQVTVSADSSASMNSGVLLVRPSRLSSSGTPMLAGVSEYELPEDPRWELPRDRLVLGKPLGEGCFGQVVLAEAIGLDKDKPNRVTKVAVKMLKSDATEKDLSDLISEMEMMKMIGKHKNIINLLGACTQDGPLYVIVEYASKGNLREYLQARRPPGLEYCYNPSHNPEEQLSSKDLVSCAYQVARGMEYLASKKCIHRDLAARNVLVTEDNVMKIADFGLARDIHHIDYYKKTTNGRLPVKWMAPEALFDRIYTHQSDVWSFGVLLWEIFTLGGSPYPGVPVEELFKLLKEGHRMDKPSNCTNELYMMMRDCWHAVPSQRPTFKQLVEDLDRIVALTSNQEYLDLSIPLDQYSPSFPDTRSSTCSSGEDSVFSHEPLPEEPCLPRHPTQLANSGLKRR
The in vitro potency may also be determined in an assay with mouse 3T3-L1 adipocytes by testing the FGF21 analogues and derivatives for their ability to increase glucose uptake into adipocytes. Differentiated 3T3-L1 adipocytes endogenously express FGFR1c and BKL. The 3T3-L1 cells are unresponsive to FGF21 until after differentiated as differentiation lead to expression of the co-receptor BKL. Activation of the FGFR1 receptor/BKL complex increase the expression of glucose transporter 1 (GLUT1) and therefore FGF21 agonists will lead to an increased amount of glucose taken into the adipocytes in a dose responsive manner.
Mouse 3T3-L1 fibroblasts (e.g. available from ATCC, catalogue no. CL-173) were maintained in basal medium (DMEM (4500 mg/I Glucose) with 10% Fetal Bovine Serum (FBS) and 1% Penicillin/Streptomycin). The cells are not allowed to reach confluence and should be passed (transferred to new vials) before reaching approx. 60% of confluency (by visual inspection).
For the glucose uptake assay, cells were 15.000 cells/well in a 96 well plate (BIOCOAT), and when they reached confluency (high density, with a view to have differentiated adipose cells made), the medium was changed from basal medium to basal medium containing Troglitazone, IBMX, Dexamethasone (commercially available from, e.g., Sigma) and human insulin (commercially available from, e.g., Novo Nordisk A/S).
The cells were used 7-9, days after initiation of differentiation. The cells were stimulated with increasing concentrations (0-300 nM) of the FGF21 analogues or derivatives of the invention for 20 hours in basal medium. Before addition of 3H-deoxy-glucose (in what follows: the tracer) the cells were washed in warm (approximately 37° C.) assay buffer (PBS with 1 mM MgCl2 and 2 mM CaCl2), HEPES and 0.1% Human serum albumin) and the cells were incubated with the tracer for 1 hour. This incubation was terminated by washing twice in ice cold assay buffer. The cells were lysed with Triton X-100 and lysates transferred to a 96 wells plate, microscint-40 (commercially available from, e.g., Perkin Elmer) was added and amount of tracer counted in a TOP-counter (e.g. a Packard top-counter from Perkin Elmer). The EC50 and Emax of the FGF21 compound in question were calculated. The results which are shown in tables 4-5 below indicate the EC50 (potency) and Emax (efficacy) of the FGF21 analogues and derivatives, respectively.

Data set [1] is described as follows: Body weight reduction in lean mice. In kind it is in vivo, lean C57BL mice. As to conditions: change from baseline day 1 to 7. Here is the method:
In order to determine the in vivo potency of the FGF21 derivatives the effect on body weight was studied in lean C57BL mice after subcutaneous (s.c.) administration. It has previously been shown that the weight loss induced by FGF21 in lean mice is predictive of the effect in obese mice and therefore lean mice are considered a good screening model.
The compounds were administered s.c. 1 mg/kg either once (QD) or twice (BID) daily in 10 mM phosphate, 2% (w/vol) glycerol, 500ppm (=0.05%) polysorbate 80, pH=8.15, (2 ml/kg) for 7 days (n=7-8). The respective vehicle treated groups (control) were treated with 10 mM phosphate, 2% (w/vol) glycerol, 500ppm (=0.05%) polysorbate 80, pH=8.15, (2 ml/kg) s.c. twice daily for 7 days (n=6-8). Body weight was measured before dosing and again after 7 days treatment.

Data set [2] is described as follows: Pharmacokinetic study in mice (i.v.). As to conditions: terminal half-life, single intravenous dose of 20 mg/kg, lean C57bl mice.
Description: (§1) This was done in a pharmacokinetic (PK) study, where the terminal half-life of the analogue in question was determined. By terminal half-life is meant the time it takes to halve a certain plasma concentration in the terminal elimination phase.
(§2) The pharmacokinetic profile of FGF21 analogues was tested in normal lean C57b1 mice, n =2-3 (approximately 30 grams). FGF21 compounds were dosed as a single intravenous dose of 20 mg/kg (approximately 5 ml/kg).
(§3) The plasma levels of the FGF21 compounds were determined using Fibroblast Growth Factor-21 Human ELISA (available from BioVendor, catalogue no. RD191108200R). The PC based software, WnNonLin version 6.3 from Pharsight Corportion, Cary N.C., was used for the pharmacokinetic calculation.
The nature of data set [3]: Pharmacokinetic study in mini pigs (i.v.). As to conditions: terminal half-life, female Gottingen mini pigs.
Description: (§4) The purpose of this study was to determine the protraction in vivo of the FGF21 derivatives after i.v. administration to mini pigs and mice, i.e. the prolongation of their time in the body and thereby their time of action. This was done in a pharmacokinetic (PK) study, where the terminal half-life of the analogue in question was determined. By terminal half-life is meant the time it takes to halve a certain plasma concentration in the terminal elimination phase.
(§5) Female Gottingen mini pigs were obtained from Ellegaard Gottingen Minipigs (Dalmose, Denmark) approximately 7-14 months of age and weighing approximately 16-35 kg were used in the studies. The mini pigs were housed either individually (pigs with permanent catheters) or in a group and fed restrictedly once or twice daily with SDS mini pig diet (Special Diets Services, Essex, UK).
(§6) After at least 2 weeks of acclimatisation two permanent central venous catheters were implanted in vena cava caudalis or cranialis in each animal. The animals were allowed 1 week recovery after the surgery, and were then used for repeated pharmacokinetic studies with a suitable wash-out period between successive dosing.
(§7) Blood samples (for example 0.8 ml) were collected in EDTA (8 mM) coated tubes and then centrifuged at 4° C. and 1942G for 10 minutes. Blood samples were collected to adequately cover the full plasma concentration-time profile of the API. In example blood samples were collected at t=predose, 0.0833, 0.25, 0.5, 0.75, 1, 1.5, 2, 3, 4, 6, 8, 10, 24, 30, 48, 72, 96, 120, 144, 168, 192, 216, 240, 264 hours after dose.
(§8) Plasma was pipetted into Micronic tubes on dry ice, and kept at −20° C. until analysed for plasma concentration of the respective FGF-1 analogue using ELISA. Individual plasma concentration-time profiles were analyzed by a non-compartmental pharmacokinetic method in Phoenix v. 6.3 (Pharsight Inc., Mountain View, Calif., USA), or other relevant software for PK analysis, and the resulting terminal half-lives (harmonic mean) determined.
The target of the next data set is FGF receptor/BKL complex. Briefly: FGF receptor potency in an Erk phosphorylation assay in HEK293 overexpressing human BKL. The data set is classed as cell-based. As to conditions: HEK293/BKL cells, pERK after 12 minutes. Summed up:
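pERK after 12 min analogue exposure at 37° C. was quantified by AlphaScreen SureFire in lysates of beta-klotho-transfected HEK293 cells. Assay medium was DMEM with 0.02% Tween20, run both without albumin and with 0.1% final HSA to probe albumin binding. Cells were starved 2 h in basal medium first. Absolute EC50 reported.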

For data set [4] the following is noted: mouse, in vivo, iv, 20 mg/kg.
Description: as §1, §2, §3
The conditions of data set [5]: pig, in vivo, iv.
Description: as §4, §5, §6, §7, §8
The mark [6] stands for this setting: presence of 0.1% HSA, read-out: EC50 (0.1% HSA).

Numbering of substitutions follows the chain as printed. Where two headings read alike, the source gives them in different places. Marks after values point to notes of the source that are not given here.

Chain of FGF receptor/BKL complex (Q86Z14 whole entry, one chain of several): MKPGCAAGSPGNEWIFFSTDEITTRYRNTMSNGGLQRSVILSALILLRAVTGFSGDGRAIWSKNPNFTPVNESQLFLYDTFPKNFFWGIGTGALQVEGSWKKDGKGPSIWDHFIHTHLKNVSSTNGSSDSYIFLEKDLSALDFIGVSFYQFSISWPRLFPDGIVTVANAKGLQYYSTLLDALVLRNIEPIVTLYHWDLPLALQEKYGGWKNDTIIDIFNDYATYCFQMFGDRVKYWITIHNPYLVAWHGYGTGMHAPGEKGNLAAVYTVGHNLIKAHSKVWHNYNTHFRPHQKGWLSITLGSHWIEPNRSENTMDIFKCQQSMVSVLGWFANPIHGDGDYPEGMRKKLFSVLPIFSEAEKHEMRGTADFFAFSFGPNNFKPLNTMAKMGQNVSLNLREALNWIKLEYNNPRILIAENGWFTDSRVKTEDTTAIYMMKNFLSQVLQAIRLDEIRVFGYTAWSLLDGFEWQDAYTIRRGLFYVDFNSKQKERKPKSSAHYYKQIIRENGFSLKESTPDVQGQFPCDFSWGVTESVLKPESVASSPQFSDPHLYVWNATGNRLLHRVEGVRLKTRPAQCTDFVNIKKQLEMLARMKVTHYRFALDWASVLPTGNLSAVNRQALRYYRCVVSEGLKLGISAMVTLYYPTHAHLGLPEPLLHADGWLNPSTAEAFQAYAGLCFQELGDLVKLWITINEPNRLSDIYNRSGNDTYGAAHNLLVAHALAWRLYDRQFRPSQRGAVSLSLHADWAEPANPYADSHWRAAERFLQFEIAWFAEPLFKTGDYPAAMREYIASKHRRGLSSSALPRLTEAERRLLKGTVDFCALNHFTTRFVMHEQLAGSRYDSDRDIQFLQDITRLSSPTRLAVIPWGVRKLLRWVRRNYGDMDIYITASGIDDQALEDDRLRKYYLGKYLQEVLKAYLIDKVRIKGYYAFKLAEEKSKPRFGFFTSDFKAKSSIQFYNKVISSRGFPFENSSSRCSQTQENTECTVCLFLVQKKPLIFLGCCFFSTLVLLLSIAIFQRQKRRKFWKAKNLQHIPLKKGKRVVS

B1: S{Beta-180}-[2-[2-[[2-[2-[2-[[2-[2-[2-[[(4S)-4-carboxy-4-(13-carboxytridecanoyl-amino)butanoyl]amino]ethoxy]ethoxy]acetyl]amino]ethoxy]ethoxy]acetyl]amino]-ethylamino]-2-oxoethyl]-Ala[Gln121,Leu168,Cy … (protein)
chain: HPIPDSSPLLQFGGQVRQRYLYTDDAQQTEAHLEIREDGTVGGAADQSPESLLQLKALKPGVIQILGVKTSRFLCQRPDGALYGSLHFDPEACSFRELLLEDGYNVYQSEAHGLPLHLPGQKSPHRDPAPRGPARFLPLPGLPPALPEPPGILAPQPPDVGSSDPLSLVGPSQGRSPSYCS
For orientation: EC50 means the concentration needed to bring the measured effect to its halfway point. Regarding B1, the EC50 in the data set with 3T3-L1 adipocytes was 6.7 nM; at FGF receptor/BKL complex (absence of HSA, read-out: EC50), 6 nM; on FGF receptor/BKL complex (setting [6]), 6 nM. The “Glucose uptake Emax” value with 3T3-L1 adipocytes came out at 106%. Moreover, the figures for the “Mean Δ body weight (%)” value in data set [1] (s.c. 1 mg/kg BID for 7 days) and in data set [1] (s.c. 1 mg/kg QD for 7 days) were −3.09* % and 1.85%, respectively. In data set [2], this molecule showed a Half-life mice of 1 h. The molecule also yielded a Half-life mini pigs in data set [3] of 3 h.

B2: S{Beta-180}-[2-[2-[[2-[2-[2-[[2-[2-[2-[[(4S)-4-carboxy-4-(15-carboxypentadecanoyl-amino)butanoyl]amino]ethoxy]ethoxy]acetyl]amino]ethoxy]ethoxy]acetyl]amino]-ethylamino]-2-oxoethyl]-Ala[Gln121,Leu168, … (protein)
chain: B1 chain
In the case of B2, the EC50 with 3T3-L1 adipocytes was determined as 9.1 nM; at FGF receptor/BKL complex (absence of HSA, read-out: EC50) it was 4 nM; on FGF receptor/BKL complex (setting [6]), 6 nM. In addition, the “Glucose uptake Emax” value in the data set with 3T3-L1 adipocytes was determined as 98%. Besides, in data set [1] (s.c. 1 mg/kg QD for 7 days), the “Mean Δ body weight (%)” value is given as −4.48*** %. In data set [2], this molecule returned a Half-life mice of 3 h. In data set [3], this molecule returned a Half-life mini pigs of 23 h.

B3: S{Beta-180}-[2-[2-[[2-[2-[2-[[2-[2-[2-[[(4S)-4-carboxy-4-(17-carboxyheptadecanoyl-amino)butanoyl]amino]ethoxy]ethoxy]acetyl]amino]ethoxy]ethoxy]acetyl]amino]-ethylamino]-2-oxoethyl]-Ala[Gln121,Leu168, … (protein)
chain: B1 chain
Regarding B3, the concentration for a half-maximal effect (EC50) was 32 nM in the data set with 3T3-L1 adipocytes; 5 nM at FGF receptor/BKL complex (absence of HSA, read-out: EC50); 48 nM on FGF receptor/BKL complex (setting [6]). Besides, the “Glucose uptake Emax” value with 3T3-L1 adipocytes was 109%. In addition, the “Mean Δ body weight (%)” value in data set [1] (s.c. 1 mg/kg QD for 7 days) is given as −10.59*** %. For the same molecule, the Half-life mice in data set [2] was determined as 12 h. In addition, the Half-life mini pigs in data set [3] came out at 70 h.

B4: S{Beta-181}-[2-[2-[[2-[2-[2-[[2-[2-[2-[[(4S)-4-carboxy-4-(13-carboxytridecanoyl-amino)butanoyl]amino]ethoxy]ethoxy]acetyl]amino]ethoxy]ethoxy]acetyl]amino]-ethylamino]-2-oxoethyl]-Ala[Gln121,Leu168,Cy … (protein)
chain: B1 chain with C180A, S181C
Turning to B4, the EC50 with 3T3-L1 adipocytes was 7.2 nM; on FGF receptor/BKL complex (absence of HSA, read-out: EC50) it was 58 nM; at FGF receptor/BKL complex (setting [6]), 41 nM. For the same molecule, the “Glucose uptake Emax” value with 3T3-L1 adipocytes was determined as 55%. In data set [1] (s.c. 1 mg/kg BID for 7 days), the “Mean Δ body weight (%)” value was −0.94%. Further, the Half-life mice in data set [2] worked out at 3 h. The molecule also showed a Half-life mini pigs in data set [3] of 2 h.

B5: S{Beta-181}-[2-[2-[[2-[2-[2-[[2-[2-[2-[[(4S)-4-carboxy-4-(15-carboxypentadecanoyl-amino)butanoyl]amino]ethoxy]ethoxy]acetyl]amino]ethoxy]ethoxy]acetyl]amino]-ethylamino]-2-oxoethyl]-Ala[Gln121,Leu168, … (protein)
chain: B1 chain with C180A, S181C
Consider B5, for which the EC50 in the data set with 3T3-L1 adipocytes amounted to 31 nM; at FGF receptor/BKL complex (absence of HSA, read-out: EC50), 55 nM; on FGF receptor/BKL complex (setting [6]), 72 nM. The “Glucose uptake Emax” value with 3T3-L1 adipocytes is given as 61%. Moreover, the “Mean Δ body weight (%)” value in data set [1] (s.c. 1 mg/kg QD for 7 days) stood at 0.18%. This molecule also gave a Half-life mice in data set [2] of 4 h. For the same molecule, the Half-life mini pigs in data set [3] stood at 25 h.

B6: S{Beta-181}-[2-[2-[[2-[2-[2-[[2-[2-[2-[[(4S)-4-carboxy-4-(17-carboxyheptadecanoyl-amino)butanoyl]amino]ethoxy]ethoxy]acetyl]amino]ethoxy]ethoxy]acetyl]amino]-ethylamino]-2-oxoethyl]-Ala[Gln121,Leu168, … (protein)
chain: B1 chain with C180A, S181C
With B6, the EC50 was 56 nM with 3T3-L1 adipocytes; 42 nM at FGF receptor/BKL complex (absence of HSA, read-out: EC50); 170 nM at FGF receptor/BKL complex (setting [6]). The “Glucose uptake Emax” value in the data set with 3T3-L1 adipocytes was determined as 73%. The molecule also yielded a Half-life mice in data set [2] of 14 h. The Half-life mini pigs in data set [3] amounted to 85 h.

B7: MetFGF21 (protein)
chain: MHPIPDSSPLLQFGGQVRQRYLYTDDAQQTEAHLEIREDGTVGGAADQSPESLLQLKALKPGVIQILGVKTSRFLCQRPDGALYGSLHFDPEACSFRELLLEDGYNVYQSEAHGLPLHLPGNKSPHRDPAPRGPARFLPLPGLPPALPEPPGILAPQPPDVGSSDPLSMVGPSQGRSPSYAS
As for B7, in the data set with 3T3-L1 adipocytes, the “Glucose uptake Emax” value was determined as 100%. In data set [4], this molecule came in with a Half-life mice of 1 h. Further, the “Mean Δ body weight (%)” value in data set [1] (s.c. 1 mg/kg BID for 7 days) is on record as −1.88** %. Further, in data set [5], the Half-life mini pigs worked out at 2 h.
